Experimental data published in patent publication US20250129146A1, “COMBINED CANCER THERAPY WITH AN EPITHELIAL CELL ADHESION MOLECULE (EPCAM) INHIBITOR AND A WNT INHIBITOR” (ACADEMIA SINICA, priority 2021, published 2025).
Entries after “also recorded” stand apart in the source; their conditions may differ.

How the values were obtained:
TCF = TCF activity (TOP-Flash TCF luciferase reporter); assay type: cell-based, human
Procedure: Cells were plated at 5×10^3 cells per well and grown overnight in 12-well plates. Then, cells were transiently transfected with TOP-Flash TCF reporter plasmid (Millipore) using poly-jet transfection reagent (SignaGen). At 48 h post transfection, cells were treated with 20 µg/mL Anti-EpCAM EpAb2-6 (Produced in house) or MT201 (Produced in house) for 6 h or 400 ng/mL LGK974 (MedChemExpress) for 9 h or the combination, as indicated. In addition, cells were treated with EpEX (Produced in house by Expi293 Expression System) or recombinant Wnt3A (R & D systems) or the combination for 8 h. Finally, cells were lysed, and the luciferase assay was performed.
(§1) The cells were seeded in 24-well plates (1×10^4 cells/well) and incubated at 37° C. for 24 h. The culture media were refreshed, and the cells were transfected with respective reporter plasmids (TCF reporter or Wnt receptor promoter reporter) by PolyJET (SignaGen). The transfected efficiency was normalized by co-transfected with pRL-TK (20 ng) as an internal control. Additional treatments were conducted as indicated. Firefly luciferase and Renilla luminescence were measured 48 h post-transfection using the Dual-Glo Luciferase Assay System (Promega), according to the manufacturer's recommendations.

[1] = test system: Wnt receptors (FZD6/7, LRP5/6); experiment: Wnt receptor protein and mRNA expression (western blot, qPCR); assay type: cell-based, human; conditions: HT29 and HCT116 cells; overnight DAPT treatment
Procedure: (§2) For western blotting, cells were extracted using radioimmunoprecipitation assay (RIPA) buffer [(0.01 M sodium phosphate, pH 7.2), 150 mM NaCl, 2 mM EDTA, 50 mM NaF, 1% Nonidet P-40, 1% sodium deoxycholate, and 0.1% SDS)] containing phosphatase inhibitor (Roche) and protease inhibitor (Roche) cocktail. Equal amounts of protein were separated by SDS-PAGE and then transferred to PVDF membranes. The membranes were blocked with 3% BSA in TBST (Blocking solution) and incubated with necessary primary antibodies in the blocking solution overnight at 4° C. Membranes were then incubated with HRP-conjugated secondary antibodies in the blocking solution for 1 h at room temperature, and protein expression were detected. Antibodies used: anti-α-tubulin (Sigma), anti-EpCAM (abeam), anti-Active β-Catenin (Millipore), anti-total β-Catenin (abeam), anti-Frizzled 6 (CST), anti-Frizzled 7 (Santa Cruz Biotech), anti-LRP5 (abcam), anti-Phospho-LRP5 (abcam), anti-Phospho-LRP6 (CST), anti-LRP6 (CST) and anti-EpEX antibody EpAb3-5 (Produced in house), anti-ADAM17 (abcam), anti-phopho-ADAM17 (abcam), anti-Presenilin2 (abcam), anti-phospho-Presenilin2 (S327) (abcam), anti-phospho-Presenilin2 (S330) (abcam) and anti-Axin2 (CST).
Total RNA was extracted using TRI reagent and 5 μg of the total RNA was further reverse-transcribed using oligo (dT) primer with reverse transcriptase. Quantitative real time RT-PCR (qPCR) was performed on cDNA using the Light Cycler 480 SYBR Green-I Master kit and the LightCycler480 System. The gene expression levels of each sample were normalized to the expression levels of glyceraldehyde 3-phosphate dehydrogenase (GAPDH) or β-actin.

active β-Catenin = experiment: Nuclear translocation of β-Catenin (immunofluorescence staining; cell fractionation with western blot); assay type: cell-based, human
Procedure: Cells (1×10^6) were seeded overnight and further allowed to grow in serum free conditions. Then cells were further treated with 20 μg/mL mEpAb2-6 or hEpAb2-6 or MT201 for 6 h or with 400 ng/mL LGK974 (MedChemExpress) for 9 h or combination as indicated. Samples were fractioned into cytosol and nuclear extracts using nuclear/cytosol fractionation kit (Biovision) according to the manufacturer's protocol. The fractions were then subjected to western blot analysis.
as §2
Glass slides were used in 24-well plates and coated with 0.1% gelatin. Further, 3×10^4 cells were seeded in serum free medium overnight. Cells were treated with 20 μg/mL EpAb2-6 for 6 h, or 400 ng/mL LGK974 (MedChemExpress) for 9 h or the combination. Cells were washed using ice-cold PBS and fixed with 4% paraformaldehyde for 15 min at RT and washed with ice-cold PBS. Further, cells were permeabilized using 0.1% triton-X in PBS for 20 min and subsequently washed with PBS. Cells were blocked with 3% BSA in PBS for 1 h at RT. Next, cells were treated with primary antibody anti-Active β-Catenin (Millipore) overnight. Then, cells were washed and treated with secondary antibody in 3% BSA containing PBS along with DAPI for 1 h at RT. Samples were then washed in PBS five times and mounted for microscopy. Nuclear β-Catenin intensities were calculated using IMARIS (Oxford Instruments) software.

[2] = test system: Wnt receptor promoters (LRP5, LRP6, FZD6, FZD7); experiment: Wnt receptor promoter luciferase reporter assay; assay type: cell-based, human; conditions: cells transfected with EpCAM plasmid; overnight DAPT treatment
Procedure: as §1
The putative promoter regions of LRP5 (−1187 to +200), LRP6 (−1543 to +55), FZD6 (−1385 to +205) and FZD7 (−1285 to +116) were cloned from HeLa genomic DNA and fused to pGL4.18 plasmid (Promega, USA). The genomic DNA was extracted using a Genomic DNA Isolation Kit (NovelGene, TW) according to the manufacturer's recommendations.

[3] = test system: colon cancer cells (SW620, HCT116); experiment: Annexin-V/PI apoptosis assay; assay type: cell-based, human; conditions: HCT116 cells; 20 μg/mL hEpAb2-6, mEpAb2-6 or MT201 for 24 hrs
Procedure: Cells were seeded in 24-well plate ([…] cells per well) overnight and then treated with 20 μg/mL mEpAb2-6, hEpAb2-6 or MT201, or […] LGK974 (MedChemExpress) or the combination for 24 hrs. Cell pellets were collected, and an apoptosis assay was performed using an Annexin-V/PI apoptosis kit (BD Biosciences). Results were read by flow cytometry analysis percentage apoptotic cells was calculated.

[4] = test system: HCT116, HT29 and SW620 cells; experiment: Tumorsphere assay; assay type: cell-based, human; conditions: summary statement; CRC cells; tumorsphere and colony formation
Procedure: Cells were seeded in ultra-low adherent 6-well plates (5×10^4 cells per well) or 24-well plates (1×10^3 cells per well) and maintained in DMEM/F-12 supplemented with B27. Further, cells were treated with 20 μg/mL mEpAb2-6, hEpAb2-6 or MT201 (Produced in house), or 400 ng/mL LGK974 (MedChemExpress) or the combination, by direct addition to the culture medium. The entire culture medium, including the treatment component, was changed in every other day. Cells were cultured for 10 days, and on 10th day, spheres were counted and photographed under the microscope.

[5] = test system: colon cancer cells (SW620, HCT116); conditions: general description of other anti-EpCAM antibodies; cited from earlier work
EpCAM = target: T1, EpCAM (Homo sapiens, UniProt P16422); conditions: general description of other anti-EpCAM antibodies; cited from earlier work
T1 construct: HEK293T cells were transfected with full length or EGF like-domain deletion mutant EpCAM-V5; V5; expressed in transfected cells; host or cells: HEK293T
T1 sequence (P16422 24-314): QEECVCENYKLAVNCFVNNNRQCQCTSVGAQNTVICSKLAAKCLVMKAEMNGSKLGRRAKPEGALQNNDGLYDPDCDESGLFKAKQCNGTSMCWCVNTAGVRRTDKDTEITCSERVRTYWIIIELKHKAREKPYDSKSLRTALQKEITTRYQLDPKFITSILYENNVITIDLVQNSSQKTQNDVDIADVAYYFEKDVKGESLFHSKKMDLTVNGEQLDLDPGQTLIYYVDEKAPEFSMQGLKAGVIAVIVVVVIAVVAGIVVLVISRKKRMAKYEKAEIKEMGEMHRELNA

[6] = wild-type HCT116 cells, DAPT with or without EpEX

## C[C@H](NC(=O)Cc1cc(F)cc(F)c1)C(=O)N[C@H](C(=O)OC(C)(C)C)c1ccccc1 [DAPT, reference compound]
TCF; [6]
  TCF activity: marginally decreased TCF activity
[1]
  expression of Wnt receptors: reduced expression of Wnt receptors
Active β-Catenin; [6]
  nuclear translocation of β-Catenin: decreased nuclear translocation of β-Catenin
[2]
  Wnt receptor promoter activity: almost completely blocked the effect

B1: hEpAb2-6: humanized form of EpAb2-6 (antibody, V domains shown)
VH: VKLQESGPELKKPGETVKISCKASGYTFTDYSMHWVKQAPGKGLKWMGWINTETGEPTYADDFKGRFAFSLETSASTAYLQINNLKNEDTATYFCARTAVYWGQGTTVTVSS
VL: DIQMTQSPSSLSASLGERVSLTCRASQEISVSLSWLQQEPDGTIKRLIYATSTLDSGVPKRFSGSRSGSDYSLTISSLESEDFVDYYCLQYASYPWTFGGGTKLEIKRADAAPTVS
TCF; HT29 cells, 20 µg/mL antibody for 6 h
  TCF activity: retained β-Catenin inhibitory activity thus related TCF activity
[3]
  induction of apoptosis: induces apoptosis
Active β-Catenin; HT29 cells, 20 μg/mL hEpAb2-6 or MT201 for 6 h
  nuclear translocation of β-Catenin: retained β-Catenin inhibitory activity; also recorded: attenuates nuclear translocation of β-Catenin
[4]
  cancer stemness properties: limits cancer stemness

B2: edrecolomab: other anti-EpCAM antibody targeting only the EGF I domain (antibody, chains of the INN, looked up, V domains shown)
VH: QVQLQQSGAELVRPGTSVKVSCKASGYAFTNYLIEWVKQRPGQGLEWIGVINPGSGGTNYNEKFKGKATLTADKSSSTAYMQLSSLTSDDSAVYFCARDGPWFAYWGQGTLVTVSA
VL: NIVMTQSPKSMSMSVGERVTLTCKASENVVTYVSWYQQKPEQSPKLLIYGASNRYTGVPDRFTGSGSATDFTLTISSVQAEDLADYHCGQGYSYPYTFGGGTKLEIK
[5]
  inducing apoptosis of cancer cells: failing
EpCAM
  EpCAM domains bound: target only the well-described EGF I domain of EpCAM; also recorded: binding to domain I only
